Results reported in the supplement of paper PMC7125110.
± gives the standard error. Variants at the floor of the assay were thinned out.

B1: glmS ribozyme (parent)
chain: AUAAAAGCGCCAGAACUACAGAAAUGUAGUUGACGAGGAGGAGGUUUAUCGAAUUUUCGGCGGAUGCCUCCAAA

How the values were obtained:
Details in all cases: with glucosamine-6-phosphate
glucosamine-6-phosphate [1] = variants of: B1; experiment: self-cleavage kobs at 160 uM GlcN6P; higher = faster cleavage; RNA array
Method in brief: (§1)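 Barcoded ribozyme variants on sequenced MiSeq chips were transcribed in situ by E. coli RNA polymerase and followed at 37 °C through a hybridised Cy3 probe. Glucosamine-6-phosphate at 40 μM to 10 mM in HEPES/KCl/Mg(OAc)2 buffer was flowed in, and tiles were imaged over ~14 h. Signals were normalised to baseline and to non-cleaving reference variants, and per-tile medians were fit to one- or two-exponential decays to give kobs. Weighted Michaelis–Menten fits across concentrations gave kcat and KM.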

glucosamine-6-phosphate [2] = variants of: B1; experiment: self-cleavage kobs at 2500 uM GlcN6P; higher = faster cleavage; RNA array
Method in brief: as §1

glucosamine-6-phosphate [3] = variants of: B1; experiment: self-cleavage kobs at 640 uM GlcN6P; higher = faster cleavage; RNA array
Method in brief: as §1

glucosamine-6-phosphate [4] = variants of: B1; experiment: self-cleavage kobs at 10000 uM GlcN6P; higher = faster cleavage; RNA array
Method in brief: as §1

Variant | self-cleavage kobs at 160 uM GlcN6P (glucosamine-6-phosphate [1]) [s⁻¹] | self-cleavage kobs at 2500 uM GlcN6P (glucosamine-6-phosphate [2]) [s⁻¹] | self-cleavage kobs at 640 uM GlcN6P (glucosamine-6-phosphate [3]) [s⁻¹] | self-cleavage kobs at 10000 uM GlcN6P (glucosamine-6-phosphate [4]) [s⁻¹]
G37C U46A C68A | < 1e-05 |  |  | 
A42U A52G C68G | < 1e-05 | < 1e-05 |  | 
U45G C58G G59A | < 1e-05 | < 1e-05 |  | 
G41A G59U C71U | < 1e-05 | < 1e-05 | < 1e-05 | 
G38C G60C C71G | < 1e-05 |  | < 1e-05 | 
U49A A52U | < 1e-05 | < 1e-05 | < 1e-05 | < 1e-05
U46G U57G | < 1e-05 |  | < 1e-05 | 
G44U C58U | < 1e-05 | < 1e-05 | < 1e-05 | < 1e-05
G43U U49A A52U | < 1e-05 | < 1e-05 | < 1e-05 | 
A42U G44C A52C | < 1e-05 |  | < 1e-05 | 
U54G U56A | 0.000806 ± 0.00016 | 0.012 ± 0.0054 | 0.00244 ± 0.00071 | 0.0311 ± 0.013
A39C C50A A52U | < 1e-05 |  | < 1e-05 | 
A42U U47A C70G | < 1e-05 |  | < 1e-05 | 
G38U G59A | < 1e-05 |  |  | 
A6C A15U G29A A53G |  |  | < 1e-05 | 
A39C U54G | 0.000221 ± 9.6e-05 |  | 0.00106 ± 0.00043 | 0.005 ± 0.0012
A39C U47A C50A U56C | < 1e-05 | < 1e-05 |  | 
G37U C50U C58A G60C A64C | < 1e-05 | < 1e-05 | < 1e-05 | 
U45A C67G C68A | 7.91e-05 ± 1.9e-05 | 0.000173 ± 4.7e-05 | 0.000177 ± 4.1e-05 | 
G60C C61G | < 1e-05 | < 1e-05 | < 1e-05 | 
U56A G60U | < 1e-05 |  |  | 
A42G C61A C67A | 0.000467 ± 0.00018 |  |  | 
G38C U49G | < 1e-05 | < 1e-05 | < 1e-05 | 
G41U A48U U49G | < 1e-05 | < 1e-05 | < 1e-05 | 
A6C G13U C50G G62A C68U |  | 0.000212 ± 9.7e-05 | 0.000276 ± 0.0001 | 

Variant | self-cleavage kobs at 160 uM GlcN6P (glucosamine-6-phosphate [1]) [s⁻¹] | self-cleavage kobs at 2500 uM GlcN6P (glucosamine-6-phosphate [2]) [s⁻¹] | self-cleavage kobs at 640 uM GlcN6P (glucosamine-6-phosphate [3]) [s⁻¹] | self-cleavage kobs at 10000 uM GlcN6P (glucosamine-6-phosphate [4]) [s⁻¹]
G62U G66C | < 1e-05 | < 1e-05 | < 1e-05 | < 1e-05
A48C G51C | < 1e-05 |  | < 1e-05 | 
G44U C50A C68G | < 1e-05 | < 1e-05 |  | 
G40C G43U G66U | < 1e-05 | < 1e-05 | < 1e-05 | 
A39G G43A A48U G51C | < 1e-05 | < 1e-05 | < 1e-05 | 
G38U C68A | 7.69e-05 ± 2.1e-05 | 0.000238 ± 9.6e-05 | 0.000459 ± 0.00019 | 
U54G C58G C67G | 0.000136 ± 3.4e-05 | 8.44e-05 ± 3.2e-05 | 0.000215 ± 7.1e-05 | 
C50U C67G | 0.000148 ± 6.3e-05 | 2.44e-05 ± 1.1e-05 | 2.88e-05 ± 1.2e-05 | 
G38U C58U C68A | 7.38e-05 ± 3.4e-05 | 6.21e-05 ± 3.1e-05 | 0.00022 ± 8.3e-05 | 
C58U C68A C71G | 8.62e-05 ± 2.6e-05 |  | 4.72e-05 ± 2.2e-05 | 
A39G G62U | < 1e-05 | < 1e-05 | < 1e-05 | 
C50G U54A G63A | 0.000158 ± 4.4e-05 | 8.83e-05 ± 1.8e-05 | 0.000109 ± 2.9e-05 | 
U49C A53G | < 1e-05 |  | < 1e-05 | < 1e-05
G38A A42U A52U C68A | < 1e-05 | < 1e-05 | < 1e-05 | 
A6C G29C A36U G43U G66A |  |  | < 1e-05 | 
G43U A53C G62U | < 1e-05 | < 1e-05 |  | 
U54G C68A | 6.58e-05 ± 2.7e-05 | 0.000107 ± 2.7e-05 | 6.59e-05 ± 2.9e-05 | 
G40A U47C | 0.000162 ± 4.2e-05 |  |  | 0.00144 ± 0.00069
A42U U49A | < 1e-05 | < 1e-05 | < 1e-05 | < 1e-05
U45G G66A | 0.0029 ± 0.00042 | 0.0257 ± 0.0093 | 0.00605 ± 0.0014 | 
A42C G63U | < 1e-05 |  |  | < 1e-05
A39U G59U | < 1e-05 |  | < 1e-05 | 3.61e-05 ± 1.4e-05
A42C A64G C68U | < 1e-05 | < 1e-05 | < 1e-05 | 
G38A G59A | < 1e-05 |  |  | < 1e-05
